From article PMC9866218 (2023)

Key:
KV1.2 [1] = molecular target: T1, KV1.2 (Homo sapiens, UniProt P16389); assay: whole-cell patch clamp (Hill fit of concentration-response)
KCa3.1 = KCa3.1 (Homo sapiens, UniProt O15554); assay: as above
KCa2.2 = KCa2.2 (Homo sapiens, UniProt Q9H2S1); assay: as above
KV1.2 [2] = molecular target: T1, KV1.2; assay: whole-cell patch clamp (koff/kon block kinetics)

T1 sequence (P16389 whole entry): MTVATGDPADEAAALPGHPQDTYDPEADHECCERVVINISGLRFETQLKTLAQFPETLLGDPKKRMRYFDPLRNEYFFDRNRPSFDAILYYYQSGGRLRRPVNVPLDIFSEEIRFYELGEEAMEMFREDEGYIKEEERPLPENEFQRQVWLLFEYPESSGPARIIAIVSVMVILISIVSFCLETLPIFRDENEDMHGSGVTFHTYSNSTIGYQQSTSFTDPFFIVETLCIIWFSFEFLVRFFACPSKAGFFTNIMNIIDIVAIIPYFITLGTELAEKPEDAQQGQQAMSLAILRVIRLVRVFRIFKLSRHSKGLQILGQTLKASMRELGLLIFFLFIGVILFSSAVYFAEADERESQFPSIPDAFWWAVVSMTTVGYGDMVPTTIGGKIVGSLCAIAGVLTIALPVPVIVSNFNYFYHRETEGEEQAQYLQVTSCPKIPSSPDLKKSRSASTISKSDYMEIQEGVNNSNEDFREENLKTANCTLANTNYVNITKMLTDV
KCa2.2, sequence (Q9H2S1 whole entry): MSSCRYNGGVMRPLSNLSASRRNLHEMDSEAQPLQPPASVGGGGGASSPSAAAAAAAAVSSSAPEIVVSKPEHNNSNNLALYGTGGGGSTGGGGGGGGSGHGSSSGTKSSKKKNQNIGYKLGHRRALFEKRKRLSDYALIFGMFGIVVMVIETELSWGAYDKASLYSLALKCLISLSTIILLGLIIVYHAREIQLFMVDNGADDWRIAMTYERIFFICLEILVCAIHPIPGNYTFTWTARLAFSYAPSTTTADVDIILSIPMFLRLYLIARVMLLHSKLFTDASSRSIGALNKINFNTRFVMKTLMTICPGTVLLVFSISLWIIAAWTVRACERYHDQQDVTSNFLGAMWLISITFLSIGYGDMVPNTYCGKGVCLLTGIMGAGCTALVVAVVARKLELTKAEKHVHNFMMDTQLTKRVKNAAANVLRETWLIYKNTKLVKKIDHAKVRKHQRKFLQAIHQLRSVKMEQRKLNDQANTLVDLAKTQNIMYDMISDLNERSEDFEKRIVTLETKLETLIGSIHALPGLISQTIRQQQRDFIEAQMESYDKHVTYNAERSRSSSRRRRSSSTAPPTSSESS
KCa3.1, sequence (O15554 whole entry): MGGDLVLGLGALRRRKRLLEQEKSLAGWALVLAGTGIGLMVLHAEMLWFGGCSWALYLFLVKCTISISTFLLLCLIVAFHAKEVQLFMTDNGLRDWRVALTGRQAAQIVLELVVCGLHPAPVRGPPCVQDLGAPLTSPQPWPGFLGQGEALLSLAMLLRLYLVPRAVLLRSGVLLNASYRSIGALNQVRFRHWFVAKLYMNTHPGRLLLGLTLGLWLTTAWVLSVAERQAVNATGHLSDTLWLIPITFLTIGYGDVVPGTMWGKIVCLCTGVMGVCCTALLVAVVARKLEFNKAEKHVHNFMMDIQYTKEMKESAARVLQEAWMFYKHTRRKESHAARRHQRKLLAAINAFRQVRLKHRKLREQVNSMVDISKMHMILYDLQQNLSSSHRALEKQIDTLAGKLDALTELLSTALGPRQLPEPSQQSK

TFINHKCKSSSECLPACKAAIGRASGKCINSTCKCYY [Cm39 (α-KTx 4.8)]
Kd (KV1.2 [1]): 65 nM | Kd (KCa3.1): 57.7 nM | Kd (KCa2.2): 502 nM | Kd (KV1.2 [2]): 87.8 nM
